In patent US20240166752A1 (HEFEI TG IMMUNOPHARMA, published 2024):

Key:
[1] = target: T1, MICA expressed on CHO-K1-MICA cells (human, UniProt Q29983 24-383); experiment: Western blot of CHO-K1-MICA lysate
T1 construct: Full-length entry as expressed from the lentiviral vector
T1 sequence: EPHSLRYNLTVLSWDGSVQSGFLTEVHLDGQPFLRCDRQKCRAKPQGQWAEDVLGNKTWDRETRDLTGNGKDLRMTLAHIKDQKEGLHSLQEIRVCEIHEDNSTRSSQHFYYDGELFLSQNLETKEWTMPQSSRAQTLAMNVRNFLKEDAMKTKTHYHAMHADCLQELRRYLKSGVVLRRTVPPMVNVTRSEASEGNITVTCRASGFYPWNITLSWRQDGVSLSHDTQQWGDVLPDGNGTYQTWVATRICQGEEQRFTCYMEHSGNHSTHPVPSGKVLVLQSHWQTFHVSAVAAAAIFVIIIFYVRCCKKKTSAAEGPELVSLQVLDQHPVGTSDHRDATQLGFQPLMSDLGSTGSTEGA
Experimental: The Western blot assay was used to determine the antigenic epitope characteristics of the MICA antibody.
CHO-K1-MICA, CHO-K1 cells constructed in Example 4 were washed twice with PBS. The RIPA lysate was then added for lysis for 15 min on ice. After 5 min of centrifugation at 15,000 g at 4° C., the supernatant was collected. The lysate supernatant was subjected to protein quantification using a BCA kit. Sample was then prepared with SDS-PAGE loading buffer and the sample addition amount is 50 μg/well. After electrophoresis, the sample was transferred to a nitrocellulose membrane and blocked with 5% nonfat dried milk at room temperature for 1 h. MICA antibody diluted at 1:2000 (w/v) was then added and incubated overnight at 4° C. The membrane was washed 5 min×6 times with 1%% PBST, then HRP-goat anti-mouse IgG diluted at 1:5000 (v/v) was added and incubated at room temperature for 1 h. The membrane was washed 5 min×6 times with 1%% PBST. Chemiluminescence was detected using ECL substrate development. The results are shown in FIG. 8, further showing that the antibody of the present disclosure can bind to a linear epitope of MICA protein.

[2] = target: T2, MICB*005α3-Fc fusion protein; experiment: ELISA, MICB*005α3-Fc coated
T2 construct: also called MICBα3*005 variant
Text: (§1) The binding characteristics of the MICA antibody and the α3 domains of MICA and MICB was detected by ELISA in this example. The obtained various MICA, MICB variant extracellular region α3 domains (MICAα3*-002, 004, 005, 008, MICBα3*-005) Fc fusion proteins (MICAα3-Fc, MICBα3-Fc) and control antibody IgG were coated into a 96-well plate by the inventors. The signal strength after antibody addition was used to determine the binding characteristics of the antibody to MICA and MICB.
(§2) The fusion protein (MICA*002α3-Fc, amino acid sequence is as set forth in SEQ ID NO: 33; MICA*004α3-Fc, the amino acid sequence is as set forth in SEQ ID NO: 34; MICA*005α3-Fc, the amino acid sequence is as set forth in SEQ ID NO: 35; MICA*008α3-Fc, the amino acid sequence is as set forth in SEQ ID NO: 36; MICB*005α3-Fc, the amino acid sequence is as set forth in SEQ ID NO: 37) was diluted to 1 μg/ml with the PBS buffer and added to a 96-well plate in a volume of 100 μL/well and left overnight at 4° C. The PBS buffer solution was sucked off from the 96-well plate. The plate was washed 6 times with PBST (pH 7.2, PBS containing 0.1% Tween 20) buffer solution. 200 μL/well PBS/10% BSA was added and incubated at 37° C. for 2 hours for blocking. The blocking solution was removed. The plate was washed 6 times with PBST. […] The absorbance at […] was read with a microplate reader. […]

[3] = target: T3, MICA extracellular domain α3 domain Fc fusion protein (MICA α3-Fc) (human); experiment: ELISA, MICAα3-Fc coated
T3 construct: also called MICA α3 domain
Experimental: The MICAα3-Fc fusion protein (amino acid sequence as set forth in SEQ ID NO: 24) was diluted to 1 μg/mL with PBS buffer and added to a 96-well plate in a volume of 100 μL/well and left overnight at 4° C. The PBS buffer solution was sucked off from the 96-well plate. The plate was washed 6 times with PBST (pH 7.2, PBS containing 0.1% Tween 20) buffer solution. 200 μL/well PBS/10% BSA was added and incubated at 37 °C for 2 hours for blocking. The blocking solution was removed. The plate was washed 6 times with PBST. The MICA antibodies to be tested were diluted to an appropriate concentration with 100 µL/well PBST/0.05% BSA, and incubated at 37 °C for 1 h. The reaction system was removed. The plate was washed 6 times with PBST. HRP (horseradish peroxidase)-labeled anti-mouse antibody secondary antibody (Boster, BA1050) was diluted with PBST/0.05% BSA at 100 μL/well and incubated for 1 h at 37° C. The plate was washed 6 times with PBST, and 80 μL/well TMB (tetramethylbenzidine) was added. After 3 min of incubation at room temperature, and 80 μL/well 4M sulfuric acid was added to terminate the reaction. The absorbance at […] was read with a microplate reader.

[4] = target: T4, recombinant MICA extracellular region Fc fusion protein (MICA-Fc) (human); experiment: ELISA, MICA-Fc coated
T4 construct: also called human MICA
Experimental: The ELISA assay was used to detect the binding characteristics of the MICA antibody obtained in Example 1. The MICA extracellular region Fc fusion protein (MICA-Fc) as described above was coated into a 96-well plate. The signal strength after antibody addition was used to determine the binding characteristics of the antibody to MICA.
The MICA-Fc fusion protein (amino acid sequence as set forth in SEQ ID NO: 23) was diluted to 1 μg/mL with PBS buffer and added to a 96-well plate in a volume of 100 μL/well and left overnight at 4° C. The PBS buffer solution was sucked off from the 96-well plate. The plate was washed 6 times with PBST (pH 7.2, PBS containing 0.1% Tween 20) buffer solution. 200 μL/well PBS/10% BSA was added and incubated at 37 °C for 2 hours for blocking. The blocking solution was removed. The plate was washed 6 times with PBST. The MICA antibody to be tested was diluted to an appropriate concentration with 100 μL/well PBST/0.05% BSA, and incubated for 1 h at 37° C. The reaction system was removed. The plate was washed 6 times with PBST. HRP (horseradish peroxidase)-labeled anti-mouse antibody secondary antibody (Boster, BA1050) was diluted with PBST/0.05% BSA at 100 μL/well and incubated for 1 h at 37° C. After the incubation, the plate was washed 6 times with PBST, and 80 μL/well TMB (tetramethylbenzidine) was added. […] The absorbance at […] was read with a microplate reader.

[5] = target: T5, MICA*002α3-Fc fusion protein; experiment: ELISA, MICA*002α3-Fc coated
T5 construct: also called MICAα3*002 variant
Text: as §1, §2

[6] = target: T6, MICA*008α3-Fc fusion protein; experiment: ELISA, MICA*008α3-Fc coated
T6 construct: also called MICAα3*008 variant
Text: as §1, §2

[7] = target: T7, MICA*004α3-Fc fusion protein; experiment: ELISA, MICA*004α3-Fc coated
T7 construct: also called MICAα3*004 variant
Text: as §1, §2

T5 sequence (chain, as listed by the source limits assumed): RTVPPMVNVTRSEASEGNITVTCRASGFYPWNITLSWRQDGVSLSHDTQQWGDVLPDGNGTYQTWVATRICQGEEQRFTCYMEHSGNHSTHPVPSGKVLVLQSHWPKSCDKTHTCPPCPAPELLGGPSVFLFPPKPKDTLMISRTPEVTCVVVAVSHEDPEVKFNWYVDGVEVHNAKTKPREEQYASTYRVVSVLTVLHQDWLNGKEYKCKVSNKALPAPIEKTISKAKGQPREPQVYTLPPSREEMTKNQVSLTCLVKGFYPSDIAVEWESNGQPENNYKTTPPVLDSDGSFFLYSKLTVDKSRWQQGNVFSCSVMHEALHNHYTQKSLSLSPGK
T3 sequence (chain, as listed by the source limits assumed): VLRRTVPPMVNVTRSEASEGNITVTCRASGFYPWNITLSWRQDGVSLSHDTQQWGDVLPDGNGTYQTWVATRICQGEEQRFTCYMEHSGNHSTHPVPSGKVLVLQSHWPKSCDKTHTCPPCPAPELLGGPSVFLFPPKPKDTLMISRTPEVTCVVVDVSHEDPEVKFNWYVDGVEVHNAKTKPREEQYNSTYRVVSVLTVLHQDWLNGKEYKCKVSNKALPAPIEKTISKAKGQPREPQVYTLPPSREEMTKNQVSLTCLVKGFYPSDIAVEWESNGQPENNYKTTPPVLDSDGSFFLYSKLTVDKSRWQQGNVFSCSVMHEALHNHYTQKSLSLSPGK
T7 sequence (chain, as listed by the source limits assumed): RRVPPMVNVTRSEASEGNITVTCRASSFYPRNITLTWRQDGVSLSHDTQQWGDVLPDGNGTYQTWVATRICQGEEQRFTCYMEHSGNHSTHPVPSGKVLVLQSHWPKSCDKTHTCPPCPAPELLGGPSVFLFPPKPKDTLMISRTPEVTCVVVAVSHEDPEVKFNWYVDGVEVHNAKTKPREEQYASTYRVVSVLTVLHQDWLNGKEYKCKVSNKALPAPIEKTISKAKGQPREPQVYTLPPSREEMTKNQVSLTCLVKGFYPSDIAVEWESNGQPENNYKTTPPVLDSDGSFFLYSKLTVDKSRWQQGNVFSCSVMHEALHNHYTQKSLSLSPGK
T6 sequence (chain, as listed by the source limits assumed): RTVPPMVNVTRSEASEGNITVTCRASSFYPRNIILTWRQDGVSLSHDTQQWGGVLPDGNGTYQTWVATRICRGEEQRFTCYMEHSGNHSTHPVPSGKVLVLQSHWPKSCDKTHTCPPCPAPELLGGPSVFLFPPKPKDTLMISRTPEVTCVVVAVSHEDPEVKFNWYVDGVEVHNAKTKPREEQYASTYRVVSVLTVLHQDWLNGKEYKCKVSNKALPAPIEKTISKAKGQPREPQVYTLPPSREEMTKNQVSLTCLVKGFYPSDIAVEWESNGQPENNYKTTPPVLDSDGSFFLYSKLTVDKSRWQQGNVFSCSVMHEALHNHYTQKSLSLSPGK
T2 sequence (chain, as listed by the source limits assumed): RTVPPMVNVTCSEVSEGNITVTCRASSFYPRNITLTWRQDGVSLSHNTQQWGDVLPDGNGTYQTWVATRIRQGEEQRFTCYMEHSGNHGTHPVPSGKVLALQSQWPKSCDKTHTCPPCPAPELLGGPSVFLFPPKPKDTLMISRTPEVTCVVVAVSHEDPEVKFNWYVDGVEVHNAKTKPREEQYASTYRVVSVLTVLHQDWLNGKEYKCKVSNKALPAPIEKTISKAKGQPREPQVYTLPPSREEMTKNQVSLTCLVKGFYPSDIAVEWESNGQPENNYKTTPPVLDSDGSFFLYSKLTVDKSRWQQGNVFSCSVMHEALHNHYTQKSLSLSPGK

binding result [1]: binds | binding result [2]: binds | binding result [3]: binds | binding result [4]: binds | binding result [5]: binds | binding result [6]: binds | binding result [7]: binds
B1: MICA antibody 5A1 (murine monoclonal antibody against human MICA) (antibody, V domains shown)
VH: QVQLKQSGPGLVQPSQSLSITCIVSGFSLTTYGVHWVRQSPGKGLEWLGMIWTDGTTDYNAAFISRLSINKDNSKSQVFLKMNSLQADDTGIYYCVRKGHGYYYAMDYWGQGTSVTVSS
VL: QILLTQSPAILSASLGERVTMTCTASSSVSSSYLHWYQQKPGSSPKLWIYSTSNLASGVPARFSGGGSGTSYSLTVSNMEAEDAATYYCHQYHRSPFTFGSGTKLEIK
notes: Murine monoclonal antibody from a hybridoma; also called No. 5A1; the antibody of the present disclosure
